Assay results taken from patent US20130101549A1 (Biogen, published 2013).

B1: huLight (ligand, human, UniProt O43557 66-240, looked up)
ligand chain: GEMVTRLPDGPAGSWEQLIQERRSHEVNPAAHLTGANSSLTGSGGPLLWETQLGLAFLRGLSYHDGALVVTKAGYYYIYSKVQLGGVGCPLGLASTITHGLYKRTPRYPEELELLVSQQSPCGRATSSSRVWWDSSFLGGVVHLEAGEKVVVRVLDERLVRLRDGTRSYFGAFMV
notes: soluble, Flag-tagged; also called Flag-huLIGHT (control)
B2: anti-IGFR C06 Fab-hLIGHT fusion protein (C06-hLIGHT) (other)
heavy: EVQLLESGGGLVQPGGSLRLSCAASGFTFSIYRMQWVRQAPGKGLEWVSGISPSGGTTWYADSVKGRFTISRDNSKNTLYLQMNSLRAEDTAVYYCARWSGGSGYAFDIWGQGTMVTVSSASTKGPSVFPLAPSSKSTSGGTAALGCLVKDYFPEPVTVSWNSGALTSGVHTFPAVLQSSGLYSLSSVVTVPSSSLGTQTYICNVNHKPSNTKVDKKVEPKSCDKGGGGSGGGGSGGGGSGGGGSNPAAHLTGANSSLTGSGGPLLWETQLGLAFLRGLSYHDGALVVTKAGYYYIYSKVQLGGVGCPLGLASTITHGLYKRTPRYPEELELLVSQQSPCGRATSSSRVWWDSSFLGGVVHLEAGEEVVVRVLDERLVRLRDGTRSYFGAFMV
light: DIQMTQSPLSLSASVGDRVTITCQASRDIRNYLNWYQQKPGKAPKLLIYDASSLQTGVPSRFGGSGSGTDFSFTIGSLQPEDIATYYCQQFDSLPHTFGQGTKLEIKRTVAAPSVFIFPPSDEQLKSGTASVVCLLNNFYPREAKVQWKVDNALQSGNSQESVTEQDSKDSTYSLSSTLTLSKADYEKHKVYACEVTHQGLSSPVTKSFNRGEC
notes: Tested as culture medium of transiently transfected CHO cells; not measured for this fusion; also called pBIIBC06-256

Tests used:
[1] = target: T1, human LTβR-Ig (human, UniProt P36941 31-227); test: ELISA, huLTBR-Ig coated at 2 ug/ml, HRP anti-Flag mAb; the number is C of the printed 4-P fit y=(A-D)/(1+(x/C)^B)+D (A 0.103, B 0.763, D 1.654, R^2 0.999)
T1 construct: Expressed and purified in house; also called hLTbR-Ig; human LTBR-Ig

[2] = target: T2, murine LTβR-Ig (mouse, UniProt P50284 31-223); test: ELISA, muLTBR-Ig coated at 2 ug/ml, HRP anti-Flag mAb; the number is C of the printed 4-P fit y=(A-D)/(1+(x/C)^B)+D (A 0.125, B 0.915, D 1.615, R^2 0.999)
T2 construct: Expressed and purified in house; also called mLTbR; murine LTBR-Ig
Description: (§1) Human and murine ErbB2-Fc were obtained from R&D Systems. Wells of 96-well plates were coated with 2 ug/ml or 0.2 ug/ml of human or murine HER2-Fc by incubation overnight at 4-8° C. with either of these six proteins (80 ul/well of a 0.2 or 2 ug/ml solution in PBS). Wells were emptied, filled completely with a solution of PBS with 1% BSA (blocking buffer) and incubated at room temperature for 1 hour. Wells were emptied, washed twice PBS containing 0.05% Tween 20 (PBST) and filled with the samples (80 ul/well of 3× dilution series of the standard and supernatants in blocking buffer) prepared in another 96-well plate. […] After 1-hour incubation, the wells were emptied and filled with a solution of HRP substrate prepared freshly. The color was left to develop for 3 minutes and was stopped by addition of an equal volume of 1N H₂SO₄. Absorbance was measured at 450 nm using a Plate Reader (SpectraMax, Molecular Devices). The data was processed and graphs were created using SoftMax Pro software.
(§2) Human and murine LTBR-Ig were expressed and purified in house.

[3] = target: T3, murine HVEM-Ig (mouse, UniProt Q80WM9 39-210); test: ELISA, muHVEM-Ig coated at 2 ug/ml, HRP anti-Flag mAb; the number is C of the printed 4-P fit y=(A-D)/(1+(x/C)^B)+D (A 0.143, B 0.757, D 1.559, R^2 0.999)
T3 construct: Expressed and purified in house
T3 sequence (looked up): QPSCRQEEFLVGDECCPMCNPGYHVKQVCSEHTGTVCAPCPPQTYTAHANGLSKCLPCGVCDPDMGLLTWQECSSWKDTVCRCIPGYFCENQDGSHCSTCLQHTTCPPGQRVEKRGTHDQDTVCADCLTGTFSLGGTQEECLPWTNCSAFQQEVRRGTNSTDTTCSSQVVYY

[4] = target: T4, human HVEM-Ig (human, UniProt Q92956 39-202); test: ELISA, huHVEM-Ig coated at 2 ug/ml, HRP anti-Flag mAb; the number is C of the printed 4-P fit y=(A-D)/(1+(x/C)^B)+D (A 0.117, B 0.801, D 1.551, R^2 0.998)
T4 construct: Expressed and purified in house; also called HVEM-Fc; Herpes virus entry mediator-Ig
T4 sequence (looked up): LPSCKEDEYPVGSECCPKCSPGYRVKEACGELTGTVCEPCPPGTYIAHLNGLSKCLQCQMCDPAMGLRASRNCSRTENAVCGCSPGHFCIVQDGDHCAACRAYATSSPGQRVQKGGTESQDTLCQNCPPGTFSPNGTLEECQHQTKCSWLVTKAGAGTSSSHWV

[5] = target: T3, murine HVEM-Ig; test: ELISA, muHVEM-Ig coated at 0.2 ug/ml, HRP anti-Flag mAb; the number is C of the printed 4-P fit (A 0.027, B 0.575, D 1.071, R^2 0.994)
[6] = target: T4, human HVEM-Ig; test: ELISA, huHVEM-Ig coated at 0.2 ug/ml, HRP anti-Flag mAb; the number is C of the printed 4-P fit (A 0.22, B 1.302, D 1.232, R^2 0.998)
Description: as §1
Human and murine HVEM-Ig were expressed and purified in house.

[7] = target: T2, murine LTβR-Ig; test: ELISA, muLTBR-Ig coated at 0.2 ug/ml, HRP anti-Flag mAb; the number is C of the printed 4-P fit (A 0.044, B 0.606, D 1.329, R^2 0.999); the points end at OD about 1.1 at 10000 ng/ml, upper plateau not reached
Description: as §1, §2

[8] = target: T1, human LTβR-Ig; test: ELISA, huLTBR-Ig coated at 0.2 ug/ml, HRP anti-Flag mAb; the number is C of the printed 4-P fit (A 0.164, B 0.898, D 1.528, R^2 0.999)
[9] = target: T1, human LTβR-Ig; test: ELISA on LTbR-Ig, dilutions of medium of transfected CHO cells

T1 sequence (P36941 31-227): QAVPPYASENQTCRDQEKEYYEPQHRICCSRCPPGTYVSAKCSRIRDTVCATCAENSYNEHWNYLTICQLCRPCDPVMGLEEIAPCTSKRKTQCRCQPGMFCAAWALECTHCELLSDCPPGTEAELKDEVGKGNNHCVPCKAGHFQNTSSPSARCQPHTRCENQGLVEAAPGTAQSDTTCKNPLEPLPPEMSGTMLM
T2 sequence (P50284 31-223): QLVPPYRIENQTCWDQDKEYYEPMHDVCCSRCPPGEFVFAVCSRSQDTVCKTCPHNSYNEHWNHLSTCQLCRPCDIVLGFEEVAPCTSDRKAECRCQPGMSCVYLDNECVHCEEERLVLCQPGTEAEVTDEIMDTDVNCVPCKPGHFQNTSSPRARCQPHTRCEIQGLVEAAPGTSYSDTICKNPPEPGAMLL

Binder | EC50 [1] [ng/mL] | EC50 [2] [ng/mL] | EC50 [3] [ng/mL] | EC50 [4] [ng/mL] | EC50 [5] [ng/mL] | EC50 [6] [ng/mL] | EC50 [7] [ng/mL] | EC50 [8] [ng/mL] | binding result [9]
B1 | 2.1 | 2.39 | 1.34 | 1.3 | 18.6 | 1.27 | 810 | 1.33 | 
B2 |  |  |  |  |  |  |  |  | binds
